Data reported in publication PMC7703929, “Unraveling the mechanism of recognition of the 3’ splice site of the adenovirus major late promoter intron by the alternative splicing factor PUF60”.

Tests used:
PUF60 RRMs+UHM;SF1 1-260 = PUF60 RRMs+UHM;SF1 1-260 (human;human, UniProt Q9UHX1;Q15637 118-559;1-260, C129S;C255A;C487A|C171A); assay: EMSA; further upward shift with both proteins, suggests ternary complex; FA: 50 mM Tris-HCl, 150 mM NaCl, 20 uM EDTA, pH 8.0, room temperature, 10 nM probe; EMSA: same buffer, 5 uM RNA, 5.5% native gel in 0.5X TBE at 4 C; crystals: 0.1 M Tris-HCl pH 8.7, 25% PEG 4000, 5-10 mM BaCl2, 20 C; settings: protein: recombinant;recombinant; tags: His tag removed by TEV; N-terminal GRGS left;His tag removed by TEV; N-terminal G left; chain copies: 2;1
Sequence of PUF60 RRMs+UHM;SF1 1-260 (Q9UHX1 118-559 C129S/C255A/C487A, one chain of several): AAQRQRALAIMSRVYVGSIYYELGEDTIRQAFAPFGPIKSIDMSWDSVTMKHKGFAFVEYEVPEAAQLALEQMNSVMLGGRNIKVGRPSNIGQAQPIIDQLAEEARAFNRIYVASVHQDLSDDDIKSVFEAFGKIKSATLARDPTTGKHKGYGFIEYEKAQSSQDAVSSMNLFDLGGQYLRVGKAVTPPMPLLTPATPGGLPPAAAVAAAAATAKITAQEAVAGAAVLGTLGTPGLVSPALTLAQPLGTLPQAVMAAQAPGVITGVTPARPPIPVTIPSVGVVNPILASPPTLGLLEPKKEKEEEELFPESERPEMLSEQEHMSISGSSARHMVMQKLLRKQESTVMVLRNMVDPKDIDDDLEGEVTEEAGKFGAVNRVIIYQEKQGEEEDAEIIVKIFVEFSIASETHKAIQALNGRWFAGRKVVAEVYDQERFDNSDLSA

PUF60 RRMs+UHM [1] = biological target: T1, PUF60 RRMs+UHM (human, UniProt Q9UHX1 118-559, C129S;C255A;C487A); assay: EMSA; two conformations at 20 uM PUF60; RNA 5 uM; FA: 50 mM Tris-HCl, 150 mM NaCl, 20 uM EDTA, pH 8.0, room temperature, 10 nM probe; EMSA: same buffer, 5 uM RNA, 5.5% native gel in 0.5X TBE at 4 C; crystals: 0.1 M Tris-HCl pH 8.7, 25% PEG 4000, 5-10 mM BaCl2, 20 C; settings: protein: recombinant; tags: His tag removed by TEV; N-terminal GRGS left; chain copies: 2
T1 sequence (Q9UHX1 118-559 C129S/C255A/C487A): as the sequence (Q9UHX1 118-559 C129S/C255A/C487A, one chain of several) above

SF1 1-260 = biological target: T2, SF1 1-260 (human, UniProt Q15637 1-260, C171A); assay: EMSA; SF1 up to 40 uM, RNA 5 uM; FA: 50 mM Tris-HCl, 150 mM NaCl, 20 uM EDTA, pH 8.0, room temperature, 10 nM probe; EMSA: same buffer, 5 uM RNA, 5.5% native gel in 0.5X TBE at 4 C; crystals: 0.1 M Tris-HCl pH 8.7, 25% PEG 4000, 5-10 mM BaCl2, 20 C; settings: protein: recombinant; tags: His tag removed by TEV; N-terminal G left
T2 sequence: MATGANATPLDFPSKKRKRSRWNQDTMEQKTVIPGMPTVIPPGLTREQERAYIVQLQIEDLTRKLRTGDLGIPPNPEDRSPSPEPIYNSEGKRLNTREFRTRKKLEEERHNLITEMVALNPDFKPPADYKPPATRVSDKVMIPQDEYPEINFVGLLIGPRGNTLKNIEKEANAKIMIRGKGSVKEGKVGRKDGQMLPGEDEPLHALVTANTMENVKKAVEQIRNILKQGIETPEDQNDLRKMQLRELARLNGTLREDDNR

PUF60 RRMs = PUF60 RRMs (human, UniProt Q9UHX1 118-316, C129S;C255A); assay: fluorescence anisotropy; Kd1, two-site sequential model; FA: 50 mM Tris-HCl, 150 mM NaCl, 20 uM EDTA, pH 8.0, room temperature, 10 nM probe; EMSA: same buffer, 5 uM RNA, 5.5% native gel in 0.5X TBE at 4 C; crystals: 0.1 M Tris-HCl pH 8.7, 25% PEG 4000, 5-10 mM BaCl2, 20 C; settings: protein: recombinant; tags: His tag removed by TEV; chain copies: 2; label: 5'-fluorescein
Sequence of PUF60 RRMs (Q9UHX1 118-316 C129S/C255A): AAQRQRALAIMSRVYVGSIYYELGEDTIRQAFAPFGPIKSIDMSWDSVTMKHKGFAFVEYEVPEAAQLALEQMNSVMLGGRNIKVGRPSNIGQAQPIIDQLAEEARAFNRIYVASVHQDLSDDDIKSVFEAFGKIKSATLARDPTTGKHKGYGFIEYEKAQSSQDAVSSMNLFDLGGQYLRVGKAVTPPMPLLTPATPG

PUF60 RRMs+UHM [2] = biological target: T1, PUF60 RRMs+UHM; assay: as above; settings: protein: recombinant; tags: His tag removed by TEV; N-terminal GRGS left; chain copies: 2; label: 5'-fluorescein

GAUGUCAUACUUAUCCUGUCCCUUUUUUUU (ssRNA) [AdML3' RNA]: binds (PUF60 RRMs+UHM;SF1 1-260); binds (PUF60 RRMs+UHM [1]); binds (SF1 1-260).

For GAUGUCAUACUUAUCCUGUCCCUUUUUUUU (ssDNA, deoxyribose backbone with A, U, C, G bases (dU)) [*AdML3'], the Kd (PUF60 RRMs) was 3.64 ± 3.6 µM and the Kd (PUF60 RRMs+UHM [2]) was 4.61 ± 1.19 µM.
